According to the supplement of paper PMC10567573:

B1: GMCL1 (parent)
chain: FCYCAGSHKRKRSSGSFCYCHPDS

Variants of: B1
Assay: protein stability index of a GFP-peptide fusion (GPS, HEK-293T) (PSI 1-6); higher = more stable
Details: c terminus: a fixed tail appended
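Also: lentivirally expressed fusions sorted by FACS into six bins by GFP to DsRed ratio, PSI derived from sequencing read proportions per bin multiplied by bin number.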

First: FCYCAGSHKRKRSMGSFCYCHPDS [S14M]
Second: FCYCAGSHKRKRSSGSFSYCHPDS [C18S]
The protein stability index of the first is lower: 2.04 for the first, 2.65 for the second.

Going from FCYCAGSHKRKRSSGSFYYCHPDS [C18Y] to FCYCAGSHKRKRSSGSFEYCHPDS [C18E], the protein stability index rises from 1.14 to 2.74.

First: FCYCAGSHKRKRSSGSFNYCHPDS [C18N]
Second: FCYCAGSHKRKRSSGVFCYCHPDS [S16V]
The protein stability index of the first is higher: 2.2 for the first, 2.16 for the second.

Compared with FCYCAGSHKRKRSSGMFCYCHPDS [S16M], FCYCAGSHKRKRSSGTFCYCHPDS [S16T] is lower in protein stability index: 2.44 for the first, 2.29 for the second.

Going from FCYCAGSHKRKRSSGWFCYCHPDS [S16W] to FCYCAGSHKRKRSSGDFCYCHPDS [S16D], the protein stability index falls from 2.06 to 1.88.

Going from FCYCAGSHKRKRSSGYFCYCHPDS [S16Y] to FCYCAGSHKRKRSSGPFCYCHPDS [S16P], the protein stability index falls from 2.14 to 1.36.

First: FCDCAGSHKRKRSSGSFCYCHPDS [Y3D]
Second: FCTCAGSHKRKRSSGSFCYCHPDS [Y3T]
The protein stability index of the first is lower: 2.2 for the first, 2.99 for the second.

Going from FCSCAGSHKRKRSSGSFCYCHPDS [Y3S] to FCVCAGSHKRKRSSGSFCYCHPDS [Y3V], the protein stability index falls from 2.25 to 2.07.

Going from FCFCAGSHKRKRSSGSFCYCHPDS [Y3F] to FCCCAGSHKRKRSSGSFCYCHPDS [Y3C], the protein stability index falls from 2.01 to 1.75.

Going from FCYCAGSHKAKRSSGSFCYCHPDS [R10A] to FCYCAGSHKYKRSSGSFCYCHPDS [R10Y], the protein stability index falls from 2.48 to 1.85.

Compared with FCYCAGSHKWKRSSGSFCYCHPDS [R10W], FCYCAGSHKEKRSSGSFCYCHPDS [R10E] is higher in protein stability index: 1.92 for the first, 2.5 for the second.

First: FCYCAGSHKKKRSSGSFCYCHPDS [R10K]
Second: FCYHAGSHKRKRSSGSFCYCHPDS [C4H]
The protein stability index of the first is higher: 1.96 for the first, 1.35 for the second.

Compared with FCYRAGSHKRKRSSGSFCYCHPDS [C4R], FCYTAGSHKRKRSSGSFCYCHPDS [C4T] is higher in protein stability index: 1.36 for the first, 2.06 for the second.

Going from FCYMAGSHKRKRSSGSFCYCHPDS [C4M] to FCYEAGSHKRKRSSGSFCYCHPDS [C4E], the protein stability index falls from 2.52 to 2.01.

First: FCYWAGSHKRKRSSGSFCYCHPDS [C4W]
Second: FCYGAGSHKRKRSSGSFCYCHPDS [C4G]
The protein stability index of the first is higher: 2.56 for the first, 1.7 for the second.

Going from WCYCAGSHKRKRSSGSFCYCHPDS [F1W] to YCYCAGSHKRKRSSGSFCYCHPDS [F1Y], the protein stability index falls from 1.91 to 1.55.

Compared with ECYCAGSHKRKRSSGSFCYCHPDS [F1E], MCYCAGSHKRKRSSGSFCYCHPDS [F1M] is lower in protein stability index: 4.31 for the first, 3.46 for the second.

First: FCYCAFSHKRKRSSGSFCYCHPDS [G6F]
Second: FCYCADSHKRKRSSGSFCYCHPDS [G6D]
The protein stability index of the first is higher: 1.92 for the first, 1.91 for the second.

Compared with FCYCASSHKRKRSSGSFCYCHPDS [G6S], FCYCLGSHKRKRSSGSFCYCHPDS [A5L] is lower in protein stability index: 2.39 for the first, 1.57 for the second.

Compared with FCYCTGSHKRKRSSGSFCYCHPDS [A5T], FCYCFGSHKRKRSSGSFCYCHPDS [A5F] is higher in protein stability index: 1.38 for the first, 2.37 for the second.

Compared with FCYCVGSHKRKRSSGSFCYCHPDS [A5V], FCYCNGSHKRKRSSGSFCYCHPDS [A5N] is lower in protein stability index: 2.67 for the first, 2.03 for the second.

First: FCYCEGSHKRKRSSGSFCYCHPDS [A5E]
Second: FCYCQGSHKRKRSSGSFCYCHPDS [A5Q]
The protein stability index of the first is higher: 2.33 for the first, 1.94 for the second.

First: FCYCAGSHKRKRSSGSFCYCHPDC [S24C]
Second: FCYCAGSHKRKRSSGSFCYCHPDD [S24D]
The protein stability index of the first is lower: 1.51 for the first, 1.87 for the second.

Compared with FCYCAGSHKRKRSSGSFCYCHPDF [S24F], FCYCAGSHKRKRSSGSFCYCHPDT [S24T] is higher in protein stability index: 1.61 for the first, 2.02 for the second.

Compared with FCYCAGSHKRKFSSGSFCYCHPDS [R12F], FCYCAGSHKRKMSSGSFCYCHPDS [R12M] is lower in protein stability index: 1.64 for the first, 1.54 for the second.

First: FCYCAGSHKRKESSGSFCYCHPDS [R12E]
Second: FCYCAGSHKRKHSSGSFCYCHPDS [R12H]
The protein stability index of the first is lower: 1.15 for the first, 1.96 for the second.

First: FCYCAGSHKRKQSSGSFCYCHPDS [R12Q]
Second: FCYCAGSHKRKTSSGSFCYCHPDS [R12T]
The protein stability index of the first is lower: 2.33 for the first, 2.43 for the second.

Going from FCYCAGSHKRKSSSGSFCYCHPDS [R12S] to FCYCAGFHKRKRSSGSFCYCHPDS [S7F], the protein stability index rises from 1.74 to 2.54.

Compared with FCYCAGQHKRKRSSGSFCYCHPDS [S7Q], FCYCAGVHKRKRSSGSFCYCHPDS [S7V] is higher in protein stability index: 1.77 for the first, 1.93 for the second.

Going from FCYCAGMHKRKRSSGSFCYCHPDS [S7M] to FCYCAGRHKRKRSSGSFCYCHPDS [S7R], the protein stability index rises from 1.98 to 2.34.

Going from FCYCAGGHKRKRSSGSFCYCHPDS [S7G] to FCYCAGSHKRYRSSGSFCYCHPDS [K11Y], the protein stability index rises from 1.02 to 2.95.

First: FCYCAGSHKRPRSSGSFCYCHPDS [K11P]
Second: FCYCAGSHKRCRSSGSFCYCHPDS [K11C]
The protein stability index of the first is higher: 2.31 for the first, 1.77 for the second.

First: FCYCAGSHKRRRSSGSFCYCHPDS [K11R]
Second: FCYCAGSHKRDRSSGSFCYCHPDS [K11D]
The protein stability index of the first is lower: 1.98 for the first, 2.45 for the second.

Going from FCYCAGSHKRFRSSGSFCYCHPDS [K11F] to FCYCAGSHKRERSSGSFCYCHPDS [K11E], the protein stability index rises from 1.68 to 1.87.

First: FCYCAGSHKRKRSSGSCCYCHPDS [F17C]
Second: FCYCAGSHKRKRSSGSKCYCHPDS [F17K]
The protein stability index of the first is higher: 3.2 for the first, 2.17 for the second.

Compared with FCYCAGSHKRKRSSGSECYCHPDS [F17E], FCYCAGSHKRKRSSGSVCYCHPDS [F17V] is lower in protein stability index: 3.01 for the first, 2.04 for the second.

Compared with FCYCAGSHKRKRSSGSTCYCHPDS [F17T], FCYCAGSHKRKRSSGSRCYCHPDS [F17R] is higher in protein stability index: 2.27 for the first, 2.53 for the second.

First: FWYCAGSHKRKRSSGSFCYCHPDS [C2W]
Second: FMYCAGSHKRKRSSGSFCYCHPDS [C2M]
The protein stability index of the first is higher: 1.79 for the first, 1.51 for the second.

Compared with FIYCAGSHKRKRSSGSFCYCHPDS [C2I], FDYCAGSHKRKRSSGSFCYCHPDS [C2D] is higher in protein stability index: 1.94 for the first, 2.79 for the second.

Compared with FQYCAGSHKRKRSSGSFCYCHPDS [C2Q], FTYCAGSHKRKRSSGSFCYCHPDS [C2T] is lower in protein stability index: 3.31 for the first, 2.22 for the second.

Compared with FKYCAGSHKRKRSSGSFCYCHPDS [C2K], FCYCAGSHKRKRSSGSFCWCHPDS [Y19W] is lower in protein stability index: 2.06 for the first, 1.28 for the second.

First: FCYCAGSHKRKRSSGSFCRCHPDS [Y19R]
Second: FCYCAGSHKRKRSSGSFCLCHPDS [Y19L]
The protein stability index of the first is higher: 3.17 for the first, 1.96 for the second.

Going from FCYCAGSHKRKRSSGSFCKCHPDS [Y19K] to FCYCAGSHKRKRSSGSFCNCHPDS [Y19N], the protein stability index falls from 3.4 to 3.38.

First: FCYCAGSHKRKRSSGSFCECHPDS [Y19E]
Second: FCYCAGSHKRKRSSGSFCMCHPDS [Y19M]
The protein stability index of the first is higher: 3.63 for the first, 3 for the second.

Going from FCYCAGSHKRKRSSGSFCACHPDS [Y19A] to FCYCAGSHKRKRSSGSFCFCHPDS [Y19F], the protein stability index falls from 3.72 to 2.31.

Compared with FCYCAGSFKRKRSSGSFCYCHPDS [H8F], FCYCAGSGKRKRSSGSFCYCHPDS [H8G] is higher in protein stability index: 1.97 for the first, 2.88 for the second.

Going from FCYCAGSCKRKRSSGSFCYCHPDS [H8C] to FCYCAGSQKRKRSSGSFCYCHPDS [H8Q], the protein stability index falls from 2.37 to 1.43.
